For two molecules, % double-positive cells vs WT results are on record in US20210403591A1.

The target in assay [1] is mTfR-1 S255A on Expi293 cells (mouse) (UniProt Q62351). Put plainly: FACS, transfected Expi293 cells. (In flow cytometry, cells or beads pass a laser one at a time.)
For assay [2], the target named is mTfR-1 N253A on Expi293 cells (mouse) (UniProt Q62351). Put plainly: FACS, transfected Expi293 cells.
Assay [3] has as its target mTfR-1 L256A on Expi293 cells (mouse) (UniProt Q62351). As to the kind of experiment: FACS, transfected Expi293 cells; mutant poorly expressed.

Changes are numbered by the printed parent chain.

Chain of mTfR-1 N253A on Expi293 cells (mouse) (Q62351 whole entry N253A): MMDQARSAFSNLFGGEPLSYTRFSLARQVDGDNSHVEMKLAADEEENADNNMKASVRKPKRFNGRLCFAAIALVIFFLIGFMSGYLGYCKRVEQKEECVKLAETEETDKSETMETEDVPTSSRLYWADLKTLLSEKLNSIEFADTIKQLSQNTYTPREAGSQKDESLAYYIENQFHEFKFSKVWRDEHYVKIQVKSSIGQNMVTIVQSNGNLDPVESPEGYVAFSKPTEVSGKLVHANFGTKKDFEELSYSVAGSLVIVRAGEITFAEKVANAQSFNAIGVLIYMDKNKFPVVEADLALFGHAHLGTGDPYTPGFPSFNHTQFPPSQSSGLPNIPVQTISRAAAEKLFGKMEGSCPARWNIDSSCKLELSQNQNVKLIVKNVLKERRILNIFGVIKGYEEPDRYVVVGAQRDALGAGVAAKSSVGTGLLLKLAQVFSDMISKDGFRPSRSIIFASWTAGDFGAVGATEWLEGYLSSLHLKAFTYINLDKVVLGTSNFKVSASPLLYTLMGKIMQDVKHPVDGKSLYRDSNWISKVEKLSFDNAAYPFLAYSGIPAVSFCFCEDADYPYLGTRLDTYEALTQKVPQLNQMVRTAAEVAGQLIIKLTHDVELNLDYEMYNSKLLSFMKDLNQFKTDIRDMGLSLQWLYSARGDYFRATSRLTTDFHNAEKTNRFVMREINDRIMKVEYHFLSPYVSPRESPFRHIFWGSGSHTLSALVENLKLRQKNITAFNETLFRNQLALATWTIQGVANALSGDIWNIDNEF
Chain of mTfR-1 S255A on Expi293 cells (mouse) (Q62351 whole entry S255A): as the sequence (Q62351 whole entry N253A) above, with A253N, S255A counted along it
Chain of mTfR-1 L256A on Expi293 cells (mouse) (Q62351 whole entry L256A): as the sequence (Q62351 whole entry N253A) above, with A253N, L256A counted along it

B1: Clone C variant 13 VNAR-hFc (Fc fusion, not shown: a dimerising Fc or GST)
chain: ARVDQTPQTITKETGESLTINCVLRDSNCALSSTYWYRKKSGSTNEENISKGGRYVETVNSGSKSFSLRINDLTVEDSGTYRCNVVQYPQQDNYFWCDVYGDGTAVTVN
With B1, the % double-positive cells vs WT in assay [1] is 19%; in assay [2], 27%.

B2: Clone C VNAR-hFc fusion (Fc fusion, not shown: a dimerising Fc or GST)
chain: B1 chain with Q90S, Q91Y, D92N
Regarding B2, the % double-positive cells vs WT in assay [3] was 1%.
